FireProtDB (doi:10.1021/ja068849o)

B1: Outer membrane protein A, P0A910 (parent)
chain: MKKTAIAIAVALAGFATVAQAAPKDNTWYTGAKLGWSQYHDTGFINNNGPTHENQLGAGAFGGYQVNPYVGFEMGYDWLGRMPYKGSVENGAYKAQGVQLTAKLGYPITDDLDIYTRLGGMVWRADTKSNVYGKNHDTGVSPVFAGGVEYAITPEIATRLEYQWTNNIGDAHTIGTRPDNGMLSLGVSYRFGQGEAAPVVAPAPAPAPEVQTKHFTLKSDVLFNFNKATLKPEGQAALDQLYSQLSNLDPKDGSVVVLGYTDRIGSDAYNQGLSERRAQSVVDYLISKGIPADKISARGMGESNPVTGNTCDNVKQRAALIDCLAPDRRVEIEVKGIKDVVTQPQA

Variants of: B1
Details: Escherichia coli (strain K12); pH 9.2; 37 °C; Urea; Fluorescence; Glycine 10 mM; reversible: Yes; structure 1QJP; whole UniProt chain shown

Variant | ddG of mutation (higher = less stable) [kcal/mol] | denaturant m value [kcal/mol/M] | denaturant midpoint (higher = more stable) [M] | unfolding free energy [kcal/mol]
Y76A W78A | 4.2 | 2.4 | 2.1 | 5.1
F72A | 1.2 | 2.3 | 3.5 | 8.1
Y162A W164A | 5.7 | 2.2 | 1.6 | 3.6
W28A Y64A | 6.4 | 1.9 | 1.6 | 2.9
W36A | 2 | 2.4 | 3.1 | 7.3
F144A Y162A W164A | 6.8 | 2 | 1.2 | 2.5
W164A | 3.1 | 2.2 | 2.8 | 6.2
F144A W164A | 3.9 | 2.3 | 2.4 | 5.4
W78A | 2 | 2.4 | 3.1 | 7.3
Y76A | 2.5 | 2.2 | 3.1 | 6.8
F144A Y162A | 5.3 | 2.1 | 1.9 | 4
Y64A | 3.8 | 2.2 | 2.6 | 5.5
Y189A F191A | 1.2 | 3.1 | 2.6 | 8.1
W28A | 3.6 | 1.9 | 3 | 5.7
Y189A | 0.2 | 3.1 | 2.9 | 9.1
F191A | 2.4 | 2.3 | 3 | 6.9
Y150A | 2.7 | 2.4 | 2.8 | 6.6
